In publication PMC6467989, “RNA recognition motifs of disease-linked RNA-binding proteins contribute to amyloid formation” (Scientific Reports, 2019):

Key:
[1] = biological target: the molecule itself; test: X-ray fibre diffraction; fibrils grown by agitation at room temperature for two days (RRMs 50 μM in 10 mM phosphate pH 7.5, 50 mM NaCl; peptides in water), also seen by negative-stain TEM; fibrils centrifuged, washed, dried, diffraction at room temperature; self-assembly into amyloid fibrils
[2] = biological target: the molecule itself; test: Thioflavin T fluorescence; fresh protein or fibrillar solutions mixed with ThT (final 20 μM), 10 mM phosphate buffer, excited at 442 nm, emission 460–600 nm; self-assembly into amyloid-like aggregates
[3] = biological target: the molecule itself; test: ATR-FTIR spectroscopy; fresh protein or peptide against freshly prepared fibrils washed and re-suspended in D2O; amide I band 1600–1700 cm^-1; self-assembly into amyloid fibrils of parallel β-sheets

B1: TDP-43 RRM1 β2b peptide (peptide)
peptide: GEVLMVQVKK
notes: TDP-43, human, β2 strand of RRM1, residues 128-137; source: synthetic peptide (synthesized by Mission Biotech)
[1]
  binding result: binds

B2: FUS RRM (residues 281–375) (domain or fragment, human, UniProt P35637 281-375, looked up)
chain: NSDNNTIFVQGLGENVTIESVADYFKQIGIIKTNKKTGQPMINLYTDRETGKLKGEATVSFDDPPSAKAAIDWFDGKEFSGNPIKVSFATRRADF
notes: Fused in Sarcoma (FUS), human, RNA recognition motif, residues 281-375; Vector PQE30 or pET28a; also called Fused in Sarcoma RRM; source: E. coli (M15 or BL21-CodonPlus (DE3) RIPL), purified (HisTrap FF, HiTrap Heparin HP, Superdex 75)
[2]
  binding result: binds

B3: FUS RRM β2 peptide (peptide)
peptide: MINLYT
notes: FUS, human, β2 strand of the RRM, residues 321-326; source: synthetic peptide (synthesized by Mission Biotech)
[3]
  binding result: binds

B4: TDP-43 RRM1 β2a peptide (peptide)
peptide: VLMVQVKK
notes: TDP-43, human, β2 strand of RRM1, residues 130-137; source: synthetic peptide (synthesized by Mission Biotech)
[1]
  binding result: binds
